In US20200277350A1 (DINGFU BIOTARGET, published 2020):

Molecular target: T1, Human IL10R1 (R&D, 9100-R1-050) (human, UniProt Q13651 22-235)
T1 construct: Bought protein coated on the ELISA plate; also called hIL10R1; human IL10R1 proteins
T1 sequence (looked up): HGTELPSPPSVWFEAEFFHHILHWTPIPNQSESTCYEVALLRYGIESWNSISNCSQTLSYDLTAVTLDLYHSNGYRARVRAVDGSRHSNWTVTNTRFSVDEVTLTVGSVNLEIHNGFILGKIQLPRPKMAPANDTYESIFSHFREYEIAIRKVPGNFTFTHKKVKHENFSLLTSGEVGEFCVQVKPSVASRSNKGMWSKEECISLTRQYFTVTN
Test: ELISA, plate coated with human IL10R1, detection with goat anti-hIgG-HRP
Procedure: Human IL10R1 (R&D, 9100-R1-050) was diluted to 5 μg/mL with coating buffer (50 mM Na₂CO₃, NaHCO₃ pH 9.6), 100 μL/well, overnight at 4° C. After washing, the plates were sealed with 3% BSA-PBS for 1 h at 37° C. Then, all samples were respectively diluted from 10000 ng/mL and were diluted 3-fold to a total of 11 concentrations, with the diluent (1% BSA-PBS) as a control, incubated at 37° C. for 2 h. After washing, Goat anti-hIgG-HRP (Sigma, A0170) was added and incubated at 37° C. for 1 h. The soluble one-component TMB substrate developing solution was added, and the developing was performed in dark at room temperature for 5-10 min. 2 N H₂SO₄ 50 μL/well was added to terminate the color development reaction.

EC50: 0.0123 µg/mL
B1: Reverse-(IL10)2-Fc9 (Fc fusion)
chain 1: EPKSSDKTHTCPPCPAPELLGGPSVFLFPPKPKDTLMISRTPEVTCVVVDVSHEDPEVKFNWYVDGVEVHNAKTKPREEQYNSTYRVVSVLTVLHQDWLNGKEYKCKVSNKALPAPIEKTISKAKGQPREPQVYTLPPSRDELTKNQVSLSCGVKGFYPSDIAVEWESNGQPENNYKTTPPVLDSDGSFKLASKLTVDKSRWQQGNVFSCSVMHEALHNHYTQKSLSLSPGKGGGGSGGGGSGGGGSSPGQGTQSENSCTHFPGNLPNMLRDLRDAFSRVKTFFQMKDQLDNLLLKESLLEDFKGYLGCQALSEMIQFYLEEVMPQAENQDPDIKAHVNSLGENLKTLRLRLRRCHRFLPCENKSKAVEQVKNAFNKLQEKGIYKAMSEFDIFINYIEAYMTMKIRNGGGGSGGGGSGGGGSSPGQGTQSENSCTHFPGNLPNMLRDLRDAFSRVKTFFQMKDQLDNLLLKESLLEDFKGYLGCQALSEMIQFYLEEVMPQAENQDPDIKAHVNSLGENLKTLRLRLRRCHRFLPCENKSKAVEQVKNAFNKLQEKGIYKAMSEFDIFINYIEAYMTMKIRN
chain 2: DKTHTCPPCPAPELLGGPSVFLFPPKPKDTLMISRTPEVTCVVVDVSHENPEVKFNWYVDGVEVHNAKTKPREEQYNSTYRVVSVLTVLHQDWLNGKEYKCKVSNKALPAPIEKTISKAKGQPREPQVYTLPPSRDELTKNQVSLWCLVKGFYPSDIAVEWESNGQPENNYKTTPPVLDSDGSFFLYSALTVDKSRWQQGNVFSCSVMHEALHNHYTQKSLSLSPGK
notes: also called proteinaceous heterodimer of Group C
